# B1: OriS-6AT (dsDNA)
# DNA 1: AAAAGAAGTGAGAACGCGAAGCGTTCGCACTTCGTCCCAATATATTATTAGGGCGAAGTGCGAGCACTGGCGCC
# DNA 2: GGCGCCAGTGCTCGCACTTCGCCCTAATAATATATTGGGACGAAGTGCGAACGCTTCGCGTTCTCACTTCTTTT
# B2: OriS (dsDNA)
# DNA 1: AAAAGAAGTGAGAACGCGAAGCGTTCGCACTTCGTCCCAATATATATATATTATTAGGGCGAAGTGCGAGCACTGGCGCC
# DNA 2: GGCGCCAGTGCTCGCACTTCGCCCTAATAATATATATATATTGGGACGAAGTGCGAACGCTTCGCGTTCTCACTTCTTTT
# B3: mini-OriS* (structured_DNA)
# DNA: AAAAGAAGTGAGAACGCGAAGCGTTCGCACTTCGTTTTTTTTTT
# B4: HSV-1 origin-binding protein (OBP), encoded by the UL9 gene (enzyme)
# chain: MPFVGGAESGDPLGAGRPIGDDECEQYTSSVSLARMLYGGDLAEWVPRVHPKTTIERQQHGPVTFPNASAPTARCVTVVRAPMGSGKTTALIRWLREAIHSPDTSVLVVSCRRSFTQTLATRFAESGLVDFVTYFSSTNYIMNDRPFHRLIVQVESLHRVGPNLLNNYDVLVLDEVMSTLGQLYSPTMQQLGRVDALMLRLLRICPRIIAMDATANAQLVDFLCGLRGEKNVHVVVGEYAMPGFSARRCLFLPRLGTELLQAALRPPGPPSGPSPDASPEARGATFFGELEARLGGGDNICIFSSTVSFAEIVARFCRQFTDRVLLLHSLTPLGDVTTWGQYRVVIYTTVVTVGLSFDPLHFDGMFAYVKPMNYGPDMVSVYQSLGRVRTLRKGELLIYMDGSGARSEPVFTPMLLNHVVSSCGQWPAQFSQVTNLLCRRFKGRCDASACDTSLGRGSRIYNKFRYKHYFERCTLACLSDSLNILHMLLTLNCIRVRFWGHDDTLTPKDFCLFLRGVHFDALRAQRDLRELRCRDPEASLPAQAAETEEVGLFVEKYLRSDVAPAEIVALMRNLNSLMGRTRFIYLALLEACLRVPMATRSSAIFRRIYDHYATGVIPTINVTGELELVALPPTLNVTPVWELLCLCSTMAARLHWDSAAGGSGRTFGPDDVLDLLTPHYDRYMQLVFELGHCNVTDGLLLSEEAVKRVADALSGCPPRGSVSETDHAVALFKIIWGELFGVQMAKSTQTFPGAGRVKNLTKQTIVGLLDAHHIDHSACRTHRQLYALLMAHKREFAGARFKLRVPAWGRCLRTHSSSANPNADIILEAALSELPTEAWPMMQGAVNFSTL
# notes: No viral strain is named; Tag removal is not mentioned; also called monomer A; monomer B; source: ExpiSf9 cells (recombinant baculovirus), purified (StrepTrap HP, eluted with desthiobiotin)
# Columns and labels:
# [1] = biological target: T1, OBP (UL9 origin-binding protein), dimer (Herpes simplex virus 1, UniProt D3YPE9 1-851); test: cryo-EM; no nucleotide; 5 mM MgCl2; one dimer at Box 1; 20 mM HEPES pH 7.8, 150 mM NaCl, 5 mM MgCl2, 2 mM DTT, 5% glycerol; 2 uM OBP, protein:DNA 1:1.2, 37 C 30 min, then vitrified; details: protein: recombinant; (StrepTrap purification; tag not described); chain copies: 2
# [2] = biological target: T1, OBP (UL9 origin-binding protein), dimer; test: cryo-EM; ATPgS, Mg2+; one dimer at Box 1; 20 mM HEPES pH 7.8, 150 mM NaCl, 5 mM MgCl2, 2 mM DTT, 5% glycerol; 2 uM OBP, protein:DNA 1:1.2, 37 C 30 min, then vitrified; details: protein: recombinant; (StrepTrap purification; tag not described); chain copies: 2
# [3] = biological target: T2, OBP (UL9 origin-binding protein), dimer-dimer assembly (Herpes simplex virus 1, UniProt D3YPE9 1-851); test: cryo-EM (2D classes); two dimers, each apparently on two antiparallel OriS helices (Box 1 and Box 2); low frequency; 20 mM HEPES pH 7.8, 150 mM NaCl, 5 mM MgCl2, 2 mM DTT, 5% glycerol; 2 uM OBP, protein:DNA 1:1.2, 37 C 30 min, then vitrified; details: protein: recombinant; (StrepTrap purification; tag not described); chain copies: 4
# [4] = biological target: T2, OBP (UL9 origin-binding protein), …; test: cryo-EM; two dimers with putatively two mini-OriS* copies; 20 mM HEPES pH 7.8, 150 mM NaCl, 5 mM MgCl2, 2 mM DTT, 5% glycerol; 2 uM OBP, protein:DNA 1:1.2, 37 C 30 min, then vitrified; details: protein: recombinant; (StrepTrap purification; tag not described); chain copies: 4; hairpin with 3' single-stranded tail
# [5] = biological target: OBP (UL9 origin-binding protein), monomer (Herpes simplex virus 1, UniProt D3YPE9 1-851); test: cryo-EM; monomer; preferred orientation, DNA path needs validation; 20 mM HEPES pH 7.8, 150 mM NaCl, 5 mM MgCl2, 2 mM DTT, 5% glycerol; 2 uM OBP, protein:DNA 1:1.2, 37 C 30 min, then vitrified; details: protein: recombinant; (StrepTrap purification; tag not described); hairpin with 3' single-stranded tail
# [6] = biological target: the molecule itself; test: cryo-EM structure; OBP + mini-OriS*, dimer-dimer assembly dataset; same reconstitution; lower resolution; dimers to dimer-dimer assembly
binder,measurement,setting,value
B1,binding result,[1],binds
B2,binding result,[2],binds
same,binding result,[3],binds
B3,binding result,[4],binds
same,binding result,[5],binds
B4,stoichiometry N,[6],4

# Reference: article PMC12543377, “https://orcid.org/0000-0003-0166-1786 Gustavsson Emil Data curation Formal analysis Investigation Methodology Project administration Validation Visualization Writing - original draft Writing - review”
